In the test the target is prefusion conformation-stabilized SARS-CoV-2 spike ectodomain (S2Pecto) protein (SARS-CoV-2) (UniProt P0DTC2). As to the kind of experiment: ELISA on coated S2Pecto.

This note sets out measurements from US20230122364A1.

One may read the EC50 as the concentration at which the effect is half-maximal. A lower EC50 goes with greater potency. In turn, “rCR3022 (recombinant form of the cross-reactive SARS-CoV SRBD mAb CR3022) (antibody)” displayed an EC50 of 0.0102 µg/mL.
